# Assay results from paper PMC3113405 (Nature structural & molecular biology, 2010).
# T1: Cog2 with an N-terminal 7×His tag (S. cerevisiae, UniProt P53271 1-262)
# T1 sequence (looked up): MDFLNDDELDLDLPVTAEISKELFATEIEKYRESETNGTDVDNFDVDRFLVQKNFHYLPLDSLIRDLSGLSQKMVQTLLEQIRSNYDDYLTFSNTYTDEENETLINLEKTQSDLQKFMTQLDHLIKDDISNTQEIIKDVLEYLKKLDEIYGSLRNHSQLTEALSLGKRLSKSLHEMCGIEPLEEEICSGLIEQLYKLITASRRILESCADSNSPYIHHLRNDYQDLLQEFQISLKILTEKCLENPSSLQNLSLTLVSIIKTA
# T2: Cog8 (S. cerevisiae, UniProt Q04632 1-607)
# T2 sequence (looked up): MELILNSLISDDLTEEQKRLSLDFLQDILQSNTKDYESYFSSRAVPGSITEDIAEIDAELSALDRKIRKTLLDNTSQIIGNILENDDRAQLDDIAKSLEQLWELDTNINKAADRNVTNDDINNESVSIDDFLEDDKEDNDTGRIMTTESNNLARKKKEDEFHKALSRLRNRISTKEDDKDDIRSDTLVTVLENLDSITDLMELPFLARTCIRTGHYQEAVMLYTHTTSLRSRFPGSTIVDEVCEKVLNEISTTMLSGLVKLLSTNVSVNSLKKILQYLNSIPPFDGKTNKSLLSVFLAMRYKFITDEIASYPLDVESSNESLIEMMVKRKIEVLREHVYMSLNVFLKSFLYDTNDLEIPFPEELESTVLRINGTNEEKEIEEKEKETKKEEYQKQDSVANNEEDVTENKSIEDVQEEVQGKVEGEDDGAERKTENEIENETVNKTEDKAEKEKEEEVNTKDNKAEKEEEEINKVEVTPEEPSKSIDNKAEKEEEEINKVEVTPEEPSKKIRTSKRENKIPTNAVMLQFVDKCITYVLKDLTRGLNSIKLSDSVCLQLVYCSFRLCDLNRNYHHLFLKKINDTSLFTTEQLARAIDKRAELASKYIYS
# What was measured:
# [1] = target: T1, Cog2 with an N-terminal 7×His tag; assay: negative-stain single-particle electron microscopy with GFP labelling
# Cog8 = target: T2, Cog8; assay: negative-stain single-particle electron microscopy
Binder,stoichiometry N [1],binding result (Cog8)
"Cog1 (natural protein, S. cerevisiae, UniProt P53079 1-417, looked up) MDEVLPLFRDSHIPQIKDYQLELQNDLTKTNEAFQKNLLKNYNKILSLTDSVNDLSLNLKNVDQDFKSLCFNDEKFQLNKLTPLPYQTTTHISPPRDEEKVSIPSQNILVISNWTISINNFCNRIVTSTTPSRIFDELLLNFHELSLIPVPSKFEALVKDKCCRLQKFLVDSMKTLNLTLLQWVKLYNLLNTEFSSKWDDDLLSIFNESLFETLFNDNVQALLISSANSKDHQYHSNQQYKDAIVVDFVNSSTFRDHLIRRTVKEINTHLDTLSTLRAKLKEPETLHKLDIFHDNDTNLNDGTVSPLDDDALKQYIDTAVFYSKGLTNDTTLQIYQTVQPTIEILQNLELYKCPQETLTDLRNKLITQLQEFKTQISSRLPSPLENSTSVVDDFITSYNNHNLLQLVIDQITQLRQQ",1,binds
"Cog3 (natural protein, S. cerevisiae, UniProt P40094 1-801, looked up) MARSRKNSLVRDIASHPTIPESQTIVGLLDDSYLFDKLKKLSLAVENSDSLQRTDVSEGCSEVNGSEATTSADVKKTNKYLYYTTYLDQLNIKIDEYKVVLDQTRQVNDQLDSSIKKFRKISQDTGAFIEETKTIYEKQSKLSNLTESIPKALHYFEVLDPIMRRLNHATSPAIVKKSSFTTMLATIDESLRFLDENSDLKDAAAYRIKFKQCLIRACELISHFLTNLLKQTNQEILDKTKNKNSLTGLPSTTRDAFLYSKFYTIADTFKIQVSEIVKRSNEKAYNKYHDELNSILYECFNHYFQTRLRLLTPVIWSHIDEIVVKDKDQGLVKFIQDGKVYFQQLCADEYKLFVEFFPEKECRFKINQWFLQLCEPLYDSIRVRVLKETDICTLCDSVTLFAPYYEFEEGSEEYVKQFTDIQYDKLFEPIVQKVQARLILRVQIYVQQNILSYRPTRDVFMISNRRRKSKTSLQGGNEDATTSDDNPDPLLESYLSSFKNRSILPISPNDADDKSIDSEESTDKISQLQTYYPPLLKTLALLSKIYEMINSVVFDDLAHHVVHDCIVSLRNAYDMVIKSSAGKSDFNNLDISLAYLKNLLMLRDSIQNFNIQYTVNETYLDFSGVEGFFKSLKENGRNVLKKTKSSSILTLARELVPKVVNNMVDARTELISELRNVIKDFTESTSLELIDDTLDINSDEDLLSKNVKLRENIKARLPRIYEQILNYIDDQEIVTNLLDAVQELITQSYSKYYETITELAENGKFAKDQVADVMYLDVFTDFFAKEVADLLRNGDIDTITK",1,–
"Cog4 (natural protein, S. cerevisiae, UniProt Q06096 1-861, looked up) MEGQKSNASWESSIIEGQLSKNLARYTLLLDKLSTLSQIDKLSEVIANDYAKQSKQLNAFVQQSQSSLNKESRKLELQRTNLTTTLTQFHETVATISSSNARAKAIHDDIETVDQERALVNKTLQFVKDVRTLKNNISLAHSALETKDYLVAATAINEIRSLPDKKLIVSEFAKKVVPSSEIPEEPAILIKNWCKELTSLFQEQFMEATRTQDIKELTLMFKMFPMIGQDVLGLDLYSKYVCDIIADESRKIMSNSMENSTKFQGFFSQVLLHLFKIVSTIINDHSKVIATCYGKKHMVHVMEKVEKEADLQASLILDIFMETRKIERTIHDINEWEHSQKNEDVNIDSNQSDIETDGETEKSSIISIHDLALLIMEFSQILQNWSMYSRFYSVKWNEFSDLHPHVLQPPPPIADGKFALKLKQDKVFDEFQVFVLNHLQRSFRNSISLEELPSLNDLITAVPLNDHDNISYPVTSVLDDLILLVRKNLISVVNTGQFKLLASFLNELVKFFQNRFLVKFMQNKFKLLQSKLASNVSLKRYIPKGEEQSATSRSVSPPANKFSPLSRFTFRGAAASALTNIQSNLQAVVAEDEDSILALHHYLIYLNTLYLSKVYVHRLLSIEILEDDSQRILRDNFPFDNDAAQLQNLIINSEKLVLEQTDKLSKWAVKYLFQNILQNRVRNLLGTVFVNSASSNSSTSNQKNVSRDYSAGSNQKNYITSIEDFEDLSQINSFNSKWNQLIIPYKNILHNEAYAELLSVIVDYIVTTLEQRIWTLEFNELGVTKLDRELSLFIGNMCGLNYNLREKFLKLTQIVLLLGLDDDNFDLTTGDIKDDFNGTFDWVINSQERIKARNMKIDRTQ",1,–
